Results as given in IntAct's records for PubMed 7651520.

Molecular target: ste20_yeast STE20 (UniProt Q03497)
Sequence (Q03497 whole entry): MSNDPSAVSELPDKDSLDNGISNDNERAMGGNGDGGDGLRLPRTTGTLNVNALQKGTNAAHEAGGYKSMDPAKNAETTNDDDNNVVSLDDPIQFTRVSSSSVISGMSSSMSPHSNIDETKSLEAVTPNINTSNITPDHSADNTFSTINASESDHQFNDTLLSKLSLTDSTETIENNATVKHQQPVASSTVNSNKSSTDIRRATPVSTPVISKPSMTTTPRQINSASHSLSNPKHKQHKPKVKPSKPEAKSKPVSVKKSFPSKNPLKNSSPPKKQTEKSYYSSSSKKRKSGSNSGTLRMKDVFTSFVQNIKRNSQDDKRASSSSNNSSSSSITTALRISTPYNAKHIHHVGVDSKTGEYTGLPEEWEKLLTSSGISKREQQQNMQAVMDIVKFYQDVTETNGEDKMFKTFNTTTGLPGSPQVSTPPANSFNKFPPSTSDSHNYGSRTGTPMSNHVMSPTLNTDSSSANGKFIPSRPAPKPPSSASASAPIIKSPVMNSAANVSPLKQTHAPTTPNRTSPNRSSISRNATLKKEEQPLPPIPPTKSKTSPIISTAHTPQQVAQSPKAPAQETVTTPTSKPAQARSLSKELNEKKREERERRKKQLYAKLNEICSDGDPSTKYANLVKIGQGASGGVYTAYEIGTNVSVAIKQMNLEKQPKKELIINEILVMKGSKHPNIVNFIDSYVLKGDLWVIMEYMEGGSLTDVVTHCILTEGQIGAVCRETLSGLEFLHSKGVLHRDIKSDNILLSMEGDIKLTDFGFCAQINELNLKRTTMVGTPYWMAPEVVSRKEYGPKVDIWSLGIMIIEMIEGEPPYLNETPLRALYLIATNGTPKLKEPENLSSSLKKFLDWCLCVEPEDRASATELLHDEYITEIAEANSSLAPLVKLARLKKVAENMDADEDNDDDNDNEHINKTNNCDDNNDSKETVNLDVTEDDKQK

Sequence of Cell division control protein 42 (Saccharomyces cerevisiae), P19073 C188S (P19073 whole entry C188S): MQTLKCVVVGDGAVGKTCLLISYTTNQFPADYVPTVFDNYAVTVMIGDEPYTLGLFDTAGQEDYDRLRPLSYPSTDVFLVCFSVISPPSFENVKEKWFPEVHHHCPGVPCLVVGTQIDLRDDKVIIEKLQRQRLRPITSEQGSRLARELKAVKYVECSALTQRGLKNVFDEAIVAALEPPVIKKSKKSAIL
Sequence of Cell division control protein 42 (Saccharomyces cerevisiae), P19073 G12V;C188S (P19073 whole entry G12V/C188S): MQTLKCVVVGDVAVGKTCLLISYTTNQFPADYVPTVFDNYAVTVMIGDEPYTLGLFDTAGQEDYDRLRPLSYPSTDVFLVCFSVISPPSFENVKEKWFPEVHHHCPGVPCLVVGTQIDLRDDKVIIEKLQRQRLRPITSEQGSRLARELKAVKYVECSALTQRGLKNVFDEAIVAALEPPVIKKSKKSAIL
Sequence of Cell division control protein 42 (Saccharomyces cerevisiae), P19073 Q61L;C188S (P19073 whole entry Q61L/C188S): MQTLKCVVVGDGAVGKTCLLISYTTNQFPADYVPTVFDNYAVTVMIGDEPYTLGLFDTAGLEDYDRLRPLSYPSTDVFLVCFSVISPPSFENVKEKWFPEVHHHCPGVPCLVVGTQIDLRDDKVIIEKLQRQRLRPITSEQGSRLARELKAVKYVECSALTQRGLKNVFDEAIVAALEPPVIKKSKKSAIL

Substance	effect of a mutation on the interaction
Cell division control protein 42 (Saccharomyces cerevisiae), P19073 G12V;C188S	increasing interaction
Cell division control protein 42 (Saccharomyces cerevisiae), P19073 Q61L;C188S	increasing interaction
Cell division control protein 42 (Saccharomyces cerevisiae), P19073 C188S	increasing interaction
